The record followed here is US10314894B2, “Treatment of cardio-renal disease using PCSK6” (THE CLEVELAND CLINIC FOUNDATION, priority 2014, dated 2019).

One experiment has as its target T1, corin variant T555I (Homo sapiens, UniProt Q9Y5Q5, T555I).
T1 construct: expressed in transfected cells; host or cells: HEK293
T1 sequence (Q9Y5Q5 1-1042 T555I): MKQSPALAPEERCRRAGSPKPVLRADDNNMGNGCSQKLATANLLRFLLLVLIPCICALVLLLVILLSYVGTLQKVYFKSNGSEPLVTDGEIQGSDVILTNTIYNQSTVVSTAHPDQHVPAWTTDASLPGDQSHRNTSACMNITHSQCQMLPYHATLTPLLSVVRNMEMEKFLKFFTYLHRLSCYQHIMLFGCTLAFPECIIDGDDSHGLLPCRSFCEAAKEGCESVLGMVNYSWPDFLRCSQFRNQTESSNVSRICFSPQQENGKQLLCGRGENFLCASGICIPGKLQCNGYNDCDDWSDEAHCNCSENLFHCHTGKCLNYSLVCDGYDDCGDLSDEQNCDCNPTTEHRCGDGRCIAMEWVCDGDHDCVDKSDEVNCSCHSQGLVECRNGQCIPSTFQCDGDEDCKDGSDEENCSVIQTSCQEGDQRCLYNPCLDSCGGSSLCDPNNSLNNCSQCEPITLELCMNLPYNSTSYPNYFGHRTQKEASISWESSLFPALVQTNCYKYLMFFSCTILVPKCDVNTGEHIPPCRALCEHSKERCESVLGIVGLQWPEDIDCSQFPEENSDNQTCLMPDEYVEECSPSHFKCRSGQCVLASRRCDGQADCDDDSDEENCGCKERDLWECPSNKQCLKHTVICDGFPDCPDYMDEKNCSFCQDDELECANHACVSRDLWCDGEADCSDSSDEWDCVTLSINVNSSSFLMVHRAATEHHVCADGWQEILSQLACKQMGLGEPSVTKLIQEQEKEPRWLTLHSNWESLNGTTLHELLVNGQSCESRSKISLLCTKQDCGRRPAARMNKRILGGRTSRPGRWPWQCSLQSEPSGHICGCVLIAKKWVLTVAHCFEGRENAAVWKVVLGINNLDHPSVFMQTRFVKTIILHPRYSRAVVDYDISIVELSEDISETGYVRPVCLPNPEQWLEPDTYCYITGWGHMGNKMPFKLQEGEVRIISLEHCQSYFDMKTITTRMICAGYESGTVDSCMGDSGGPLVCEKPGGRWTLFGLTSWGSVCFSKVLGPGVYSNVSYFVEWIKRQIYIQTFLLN
As to the kind of experiment: PCSK6-mediated corin activation in HEK293 cells, corin variant T555I. The following applies: Western. Type of experiment: cell-based. The text has this:
(§1) Plasmids expressing human corin WT and mutants R801A, S985A, T555I, Q568P, T555I/Q568P, K317E, S472G and R539C were reported previously. Dong, N. et al., J Biol Chem 289, 17909-17916 (2014); Knappe et al., J Biol Chem 278, 52363-52370 (2003); Wu et al., J Biol Chem 277, 16900-16905. (2002). Plasmids expressing human PCSK1-9 were made by cloning respective cDNAs into pcNDA3.1 vector. Recombinant corin and PCSK proteins encoded by these plasmids contained a C-terminal V5 or flag tag for protein detection in Western blotting.
(§2) HEK293 and HL-1 cells were transfected with corin or PCSK6 expression plasmids. After 48-72 h, cells were lysed in a buffer containing 25 mM Tris-HCl, pH 7.4, 150 mM NaCl, 1 mM EDTA, 1% (v/v) NP-40, and 1% (v/v) protease inhibitor cocktail. Recombinant corin and PCSK6 proteins were immunoprecipitated with an anti-V5 or anti-flag antibody. Western blotting was carried out to analyze corin expression and activation or PCSK6 expression with or without reducing agents. Percentage of corin activation (corin-p vs. corin fragments) was quantified by densitometric analysis of Western blots.

Experiment [1] deals with T2, corin variant T555I/Q568P (Homo sapiens, UniProt Q9Y5Q5, Q568P/T555I).
T2 construct: expressed in transfected cells; host or cells: HEK293
T2 sequence (Q9Y5Q5 1-1042 T555I/Q568P): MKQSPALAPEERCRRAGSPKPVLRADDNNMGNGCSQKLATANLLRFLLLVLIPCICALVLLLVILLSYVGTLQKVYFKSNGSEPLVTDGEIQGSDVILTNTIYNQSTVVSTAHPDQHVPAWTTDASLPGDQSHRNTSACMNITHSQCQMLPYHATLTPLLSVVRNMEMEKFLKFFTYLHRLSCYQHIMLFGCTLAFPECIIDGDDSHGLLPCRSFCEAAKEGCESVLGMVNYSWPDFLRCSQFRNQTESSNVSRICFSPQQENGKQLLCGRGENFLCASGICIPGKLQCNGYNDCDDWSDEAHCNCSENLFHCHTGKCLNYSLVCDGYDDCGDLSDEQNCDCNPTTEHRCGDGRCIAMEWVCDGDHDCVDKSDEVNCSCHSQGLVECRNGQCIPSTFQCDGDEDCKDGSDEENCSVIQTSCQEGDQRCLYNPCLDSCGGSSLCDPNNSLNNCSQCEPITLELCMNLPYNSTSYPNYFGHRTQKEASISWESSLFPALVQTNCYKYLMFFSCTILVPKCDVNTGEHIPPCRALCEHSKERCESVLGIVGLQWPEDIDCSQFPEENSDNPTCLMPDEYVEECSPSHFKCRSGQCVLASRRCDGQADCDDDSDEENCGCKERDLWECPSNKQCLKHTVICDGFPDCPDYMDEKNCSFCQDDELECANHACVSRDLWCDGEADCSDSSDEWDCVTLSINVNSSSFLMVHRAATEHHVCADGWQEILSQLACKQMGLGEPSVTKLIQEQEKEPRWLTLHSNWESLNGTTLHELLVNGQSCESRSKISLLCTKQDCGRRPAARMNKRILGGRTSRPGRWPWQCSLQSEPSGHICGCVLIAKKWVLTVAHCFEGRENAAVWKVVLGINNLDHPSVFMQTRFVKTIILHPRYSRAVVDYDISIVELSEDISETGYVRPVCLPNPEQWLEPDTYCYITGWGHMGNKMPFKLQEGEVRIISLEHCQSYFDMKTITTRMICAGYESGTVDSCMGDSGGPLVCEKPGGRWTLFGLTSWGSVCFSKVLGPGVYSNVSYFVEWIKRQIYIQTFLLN
As to the kind of experiment: PCSK6-mediated corin activation in HEK293 cells, corin variant T555I/Q568P. The format is cell-based. The conditions noted are these: corin T555I/Q568P mutant, Western, densitometry.
Excerpt: as §1, §2

B1: proprotein convertase subtilisin/kexin-6 (protein, listed as Homo sapiens)
chain: MPPRAPPAPGPRPPPRAAAATDTAAGAGGAGGAGGAGGPGFRPLAPRPWRWLLLLALPAACSAPPPRPVYTNHWAVQVLGGPAEADRVAAAHGYLNLGQIGNLEDYYHFYHSKTFKRSTLSSRGPHTFLRMDPQVKWLQQQEVKRRVKRQVRSDPQALYFNDPIWSNMWYLHCGDKNSRCRSEMNVQAAWKRGYTGKNVVVTILDDGIERNHPDLAPNYDSYASYDVNGNDYDPSPRYDASNENKHGTRCAGEVAASANNSYCIVGIAYNAKIGGIRMLDGDVTDVVEAKSLGIRPNYIDIYSASWGPDDDGKTVDGPGRLAKQAFEYGIKKGRQGLGSIFVWASGNGGREGDYCSCDGYTNSIYTISVSSATENGYKPWYLEECASTLATTYSSGAFYERKIVTTDLRQRCTDGHTGTSVSAPMVAGIIALALEANSQLTWRDVQHLLVKTSRPAHLKASDWKVNGAGHKVSHFYGFGLVDAEALVVEAKKWTAVPSQHMCVAASDKRPRSIPLVQVLRTTALTSACAEHSDQRVVYLEHVVVRTSISHPRRGDLQIYLVSPSGTKSQLLAKRLLDLSNEGFTNWEFMTVHCWGEKAEGQWTLEIQDLPSQVRNPEKQGKLKEWSLILYGTAEHPYHTFSAHQSRSRMLELSAPELEPPKAALSPSQVEVPEDEEDYTAQSTPGSANILQTSVCHPECGDKGCDGPNADQCLNCVHFSLGSVKTSRKCVSVCPLGYFGDTAARRCRRCHKGCETCSSRAATQCLSCRRGFYHHQEMNTCVTLCPAGFYADESQKNCLKCHPSCKKCVDEPEKCTVCKEGFSLARGSCIPDCEPGTYFDSELIRCGECHHTCGTCVGPGREECIHCAKNFHFHDWKCVPACGEGFYPEEMPGLPHKVCRRCDENCLSCAGSSRNCSRCKTGFTQLGTSCITNHTCSNADETFCEMVKSNRLCERKLFIQFCCRTCLLAG
modifications: C-terminal FLAG tag
Consider B1, for which, in the experiment with corin variant T555I, the PCSK6-mediated activation cleavage entry was “detected”. Further, in experiment [1], the “PCSK6-mediated corin activation, reduction vs. WT (in words)” value is “markedly reduced”.
